These results are taken from paper PMC8496131, “Accessing Chemo- and Regioselective Benzylic and Aromatic Oxidations by Protein Engineering of an Unspecific Peroxygenase” (ACS Catalysis, 2021).

Substitutions are numbered along the chain they refer to. Numbers in names are those of the source.

Substrate in the series: O=[N+]([O-])c1ccc2c(c1)OCO2
In words: purified protein. In kind it is biochemical, Thermothelomyces thermophilus. As to conditions: H2O2 as saturating co-substrate, standard deviation <18%.

B1: MthUPO (Thermothelomyces thermophilus ATCC 42464) (protein)
chain: AGFDTWSPPGPYDVRAPCPMLNTLANHGFLPHDGKDITREQTENALFEALHINKTLASFLFDFALTTNPKNTSTFSLNDLGNHNILEHDASLSRADAYFGNVLQFNQTVFDETKTYWEGDTIDLRMAAKARLGRIKTSQATNPTYSMSELGDAFTYGESAAYVVVLGDKESRTVKRSWVEWFFEHEQLPQHLGWKRPAASFEEEDLNSSMEEIEKYTKELEGSNSTSGSQKHRRRLPRRRAHFGF
notes: secreted from S. cerevisiae, purified; 245 AA plus C-terminal TwinStrep-GFP11 tag; heme-thiolate
As usually defined, the Km is the substrate concentration at which the rate is half of its maximum. For orientation: kcat means the number of substrate molecules converted per active site and unit of time at saturation. As usually defined, the kcat/Km is the second-order rate constant that governs catalysis at low substrate concentration. On to B1, for which, under “20 nM enzyme”, the Km turned out to be 386 µM, the kcat was determined as 7.1 s⁻¹ and the kcat/Km is 19000 M⁻¹ s⁻¹.

B2: MthUPO (Thermothelomyces thermophilus ATCC 42464; F75Q/L76F/S175G) (protein)
chain: B1 chain with F59Q, L60F, S159G
notes: as for B1
Take B2: for the setting “20 nM enzyme”, the Km was 303 µM, the kcat was determined as 47 s⁻¹ and the kcat/Km came out at 160000 M⁻¹ s⁻¹.

B3: MthUPO (Thermothelomyces thermophilus ATCC 42464; A177F/L76F/S175G) (protein)
chain: B1 chain with L60F, S159G, A161F
notes: as for B1
In the case of B3, for the setting “20 nM enzyme”, the Km is 422 µM, the kcat was found to be 132 s⁻¹ and the kcat/Km was 310000 M⁻¹ s⁻¹.

B4: MthUPO (Thermothelomyces thermophilus ATCC 42464; L76F) (protein)
chain: B1 chain with L60F
notes: as for B1
Consider B4, for which, for the setting “5 nM enzyme”, the Km is 110 µM, the kcat was found to be 2.9 s⁻¹ and the kcat/Km was 27000 M⁻¹ s⁻¹.

B5: MthUPO (Thermothelomyces thermophilus ATCC 42464; F170A/F75Q/L76M/S175G) (protein)
chain: B1 chain with F59Q, L60M, F154A, S159G
notes: as for B1
Take B5: where the note is “20 nM enzyme”, the Km worked out at 290 µM, the kcat is 59.4 s⁻¹ and the kcat/Km worked out at 210000 M⁻¹ s⁻¹.
